Measurements from patent publication US20200282021A1 (published 2020).
Each block holds one binder with its values, some of them ahead of it.

How the values were obtained:
Dulaglutide = assay: BLI
[1] = molecular target: T1, human GLP-1 receptor (Abcam) (human, UniProt P43220 24-145); assay: BLI
T1 chain: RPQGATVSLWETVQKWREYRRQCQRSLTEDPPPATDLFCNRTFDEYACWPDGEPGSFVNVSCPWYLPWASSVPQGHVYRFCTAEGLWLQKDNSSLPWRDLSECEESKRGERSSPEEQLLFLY

Kd (Dulaglutide): 0.395 µM
B1: GLP-1 receptor (receptor)
chain: T1 chain

Kd [1]: 45 µM
B2: GLP-1(A2G)-hyFc9 (Fc fusion)
chain: HGEGTFTSDVSSYLEGQAAKEFIAWLVKGRGAKATTAPATTRNTGRGGEEKKKEKEKEEQEERETKTPECPSHTQPLGVFLFPPKPKDTLMISRTPEVTCVVVDVSQEDPEVQFNWYVDGVEVHNAKTKPREEQFNSTYRVVSVLTVLHQDWLNGKEYKCKVSNKGLPSSIEKTISKAKGQPREPQVYTLPPSQEEMTKNQVSLTCLVKGFYPSDIAVEWESNGQPENNYKTTPPVLDSDGSFFLYSRLTVDKSRWQEGNVFSCSVMHEALHNHYTQKSLSLSLGK
modifications: O-glycosylation at the IgD hinge region (positions not stated)
